Measurements as given in a protein production outcome set (Wang et al. 2014).

Assay: label from the status in PepcDB records

Row | Sequence | protein production
1 | MLEKVFQEITNKRKFFASSSTGEQFENQFRNELKKHFSEINGDLTEELSHIEEKPNKEIKTTFNQLKKQVLEKNHPHTLKNPFSNLTSHFLYQPFGSQNYPDFLVFIFDYVVGIEIKFSKNDKGEKNLQTSRPMWNSNLPKPNAIYVYGVANANITFFKGSDILSYETREVLLKYFDILDKDERSLKNALKDLENPFGFAPYIRKAYEHKRNFLTTTRLKASFRPTTF | failed
2 | MLENIRIVLIETSHSGNIGSAARAMKTMGLTQLCLVSPKSVDEQSYALSAGAENIVKNARVVDSFDEAVDDCPLVIGTSARLRHLQNTLIEPRECAEKVVAYKGKIAIVFGRERIGLTNEELLKCHYHLNIPANPDYSSLNLAMAVQLVSYELRMAFLVQNNKKNSLSLIEKNYPTTDQLAYFFDYTERIYQSLGFIQNQGVMRKLKRLYYRAKLEKNELNILNGMLSAVEKRIDLTKEDN | not failed
3 | MLEQGLDYVVKLAKSKKQILDANPMQYFIRAALAGIYIGFIIVLCFKLGNFFHIADSPATYLAASMFFGIALVLIIYGGAELFTGNTMYFTVATLRKETTISDTLRNWVACYAGNLAGALFFALLFYATGIFEAIDHGHLMNKVVEGKMNTPTMQLFFKAILCNWLVCLACFLPSQVKGDTAKIMIMMLLVFTFFLSGYEHSIANLSLFALSLVSPHPETISFAGAIHNLIPVTIGNIIGGSVFVGMVYHYLTKKVPDVKQEETELVAAQQEEIIPLQAHMKH | failed
4 | MLEQILLGTYTRRASQGIYKIALDTTQGRLTEATLLLEETSPTYLALSQKGELFSVTSVDGEGGTAAYQPEMDHFNLLNKVTEEGAPPCYVAVDENRQLVYAANYHQGIVHVYRILEDGSLEDADKVIHTEPTGPHENQNNAHVHYTDLTPDQRLVVCDLGTDRVYTYNVSLDGKLSEIAQFVTEPGTGPRHLVFHPTKSLAYLFGELDSTVSVLSYDETDGSFTELQKVSTLPADYDAFNGGAAIRISSDGRFLYASNRGHNSIAVYAVSENGEAIERIQLISTEGDIPRDFDLDPSEDFIVVANQDSDNLTLYRRNQETGLLEMIQKDVAVPECVCVLFVLEHHHHHH | not failed
5 | MLETDLEARMQILRESGFQESQGDDDTFAQRAEWFYQGRPLLLSLCLDLYNGYVTLLGRSSHQTRLKPTTSLPNQLLQDDDDCISDIDSVSEVSSEVESTLSFQQMKDPTAVSEKVDELVSQLVTASLDKEILKHELLHKDQQFHEASKTIELLKKFVMLLEMEKEVAVEENANLGYKLTSLLEENRELATEALFMKNEAVGLARCVLKMRDDHFHKVCILQNRIYSLQASRNSEPVSDKVSYGCFGLDKHKTKKKKENKTEEKKPGFKWLKKLNTINLFTKCSLNPSAAAPSCCTFDLPY | failed
6 | MLEVDVVRISVIVPIYNVKLYIERCVRSLMEQTLENIEFIFVNDCTPDDSMDILHYVLEEYPKRREQIKIIEHETNRGISAVRNTGLKNATGQYIIYCDSDDWVEKNMYEKLLVKALETSADIVGCDFFDDYVAHSTIRKQLFPQQSEKCVKKMLRGELHCGTWNKLVIKSLYERTKIDFPEGINMWEDVSTIIPLCFHATKIDYIPEALYHYIHHNVSSYTYSVTEKSLENLVASIQLLESFFLTNQCFKTFGEDLCFMKLTVKLNLLLGSKGELQKKRNMLYSSANRYIFSYSGMSWYWKIALWVASKKMLFCFNVMSCIERIIKKWKLEHHHHHH | failed
7 | MLFNRHNKTTDSLQQTIAEQSRLLEAIDRSMAVIEFDLQGNVLRANANFLQTLGYREDQVTGQPHRLFCTPEYVRSSDYQQLWNRLRSGQFESGTFERVASNGQSLWLEASYNPIRDASGAVYKVVKYALDVTARVQEEVEARNKLDAIDRAMAVIEFNLDGSIIGANSNFLSRMGYSLAEIKGKHHRMFCKPELINSSAYQDFWNRLNRGEFFNGQFERIDRHGRTLWLEANYNPVYDASGRLCKVVKYAADVTQQVEKHEQDAQSASQAYHISVQTRKVAEQGTGVIQQAASEMRQIAENIEGSSSLIARLGERSEQITAIVNTIRAIADQTNLLALNAAIEAARAGDQGRGFAVVADEVRQLAARTSGSTAEISSMIDMIQNETQQAIKSMDGTRERAAKGVQLADQAGTVILQIRDGASEAVEAVSMFANERGAP | failed
